From PMC2172186 (The Journal of Cell Biology, 2004)

B1: TgGAP45 (Toxoplasma gondii gliding-associated protein 45) (natural protein, UniProt Q7Z289 1-245, looked up)
chain: MGNACKKNTAKTPTRKEAEDLAEKERQEREAKEKAEAEEKARAEAEKNAADKAEAERRAAEAREREESARKEAEAEAARKAEAEAAEAERLRKEAEKKKAEEAKRKAEEEQRAAAEEAEQRAREEAERRKAEAAAAAERERQMQEALKQEEMSPREKYDKLASPEDSASETTMATQPQKVAEHSSAAVTDRSVVGYTVTPCDMAAIDETAKYLSKRCGCDLGDQHDENECPICRHIDLSDAPLLN

Legend:
[1] = molecular target: TgMyoA (Toxoplasma gondii myosin-A, class XIV myosin) (Toxoplasma gondii (endogenous in RH strain parasites)) (UniProt O00934); test: co-IP
[2] = molecular target: TgMyoA (Toxoplasma gondii myosin-A, class XIV myosin) (Toxoplasma gondii (endogenous in RH …, UniProt O00934 1-831)); test: co-IP

| Molecule | molar ratio to TgMyoA in the complex [1] | molar ratio to TgMyoA in the complex [2] |
| --- | --- | --- |
| TgMLC1 (Toxoplasma gondii myosin light chain-1) (natural protein) | 1.38 | – |
| B1 | – | 1.31 |
